Reference: a protein production outcome set (Wang et al. 2014)

Assay: label from the status in PepcDB records
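Note: failed if final PepcDB status was selected cloned or expressed and not failed if soluble or beyond.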

MEVSSFSTVPRYCNSRSFVPELSRFRGFKVHLWDQSLVPLHFSIRKRKNTPRYLISCSQKKDVTVVDGSCMDEIYDKLAERLVPTAAAMFSPNLKRLVGLAGPPGAGKSTVANEVVRRVNKLWPQKAASFDAEVNPPDVAIVLPMDGFHLYRSQLDAMEDPKEAHARRGAPWTFDPALLLNCLKKLKNEGSVYVPSFDHGVGDPVEDDIFVSLQHKVVIVEGNYILLEEGSWKDISDMFDEKWFIDVNLDTAMQRVENRHISTGKPPDVAKWRVDYNDRPNAELIIKSKTNADLLIRSMNI
protein production: failed

MEVVVVGDAQAMAGRVPTVMHVRCPDRLREGVYRQVLELLTDLSPVVQALPPTAALVELKGALRYHGSEVHRLGEVLRVRTLSRLGVDVRVGIGPSITIAATASAQVPLPGGVLTVAPDDVTDWLAPLPGEALHGLGPRQAGALHEYGIHTVGLLAAVSPETVQRLLGGKAGRLAADRARGRDPRPVVPRALPAAATVRMRFDRHVLDGADVRAALLDLVVQLGRLLRRRGQAARAVSLTLQFAGGGSWEKSRRLPEPSAHDEDLRTMAYRLIDAAGLQRGRLTGLFLKADDLVDADRVAQQISLDQAREARLVAEATVDRVRDKFGPGVIGPAATARRAS
protein production: failed

MEVYTTENEQVDVLRRFLAENGKALVVGVVLGVGALVGWRFWQSHQNDSVQAASASYQQVTEQLAEGKAEAIASTEKFTAENKNTYGALASLELARHYVDQKDFAKAVQQLVQAQSQTKDADLLAVVNLRLARVQLQENKADDALKTLDAIKLEGWASQAAEVRGDILASKGDNQAARDAYNKGLSSNPSQAQQALLRMKLNNLSS
protein production: failed

MEWGGLDERQICWQVNGRGGQGLAGCSFLRGVRKRSRPPRLLPSRPPAAMSTFERHIIKRLLKGFVLFVGALLVFFIVLHWVEYSDDFLDGGATIWEVFTVFYPNYVPEIIRLTSPLALFLSCIYLTGTLAQELQLVALQTSGVSLYQLMRPYLGVGLLVTVFMFGFNGWVVPKTNEVVVRYENEYLPGNQKSVQTSEIHRRNGPNSILSVGYYDADRERAHTVSLQQLAGDARLARRVDANRMEWDDSLEVWRLDDVTRRTFVKGETQRKRTIASLDTTLQVYPRDLARSKNDVAAMTIPAAAEYLAALRRSGVGGLTRPLVAYYNKFAYPFANLLLVLIGVPIASTRRRGGQAVRFAIGLLIAFVYLSVQKLAEPLGYAGTLSPAWTAWLPHLTFAVVALLVLWWARK
protein production: failed

MEWKLERTAPRRVRTEEEMLWESIMRVLSKDLKQKRSQDSANVLDSVNATYSDFKSNFAKRLSAEVPVASSPITTRWQQSQTRALSSDSFGEEQSTTYLPEASGSVLKTPPEKETLTLGSCKEQLKTPSKGISETSNSALHFCKAPHAMDRDWKESVASKGQKCLKQLFVTQNVVQQANGKMQLCEQSECVWKGCKDGVRDESFHLKSSGDINDSILQPEVKIHITGLRNDYYLNILDWSFQNLVAIALGSAVYIWNGENHNGIENIDLSLTCNYISSVSWIKEGTCLAVGTSEGEVQLWDVVTKKRLRNMLGHLSVVGALSWNHFILSSGSRLGRVYHHDVRVAQHHVGTLRHKQAVCALKWSPDGRLLSSGCSDGLLTIWPHDPGASAQGQPLKVITQSTAVKAMDWCPWQSGVLAIGGGMKDGRLHILDINAGKSIQTPSTNSQICSLIWLPKTKEIATGQGTPKNDVTVWTCPTVSRSGGFFGHRGRVLHLALSPDQTWVFSAAADGTASVWNCY
protein production: failed

MEWLEQLLGKEWSLVPAGGVTGDAYIAQNGQQKLFLKRNTSPFLAVLSAEGIVPKLLWTRRVTNGDVISAQKWLPGQKLEPEDMKLERVAKLLKKIHSSKALVQMIQRLGKQPLHAQELLQQLQLVLRGDIRDEETIQQGLQYLMDSLKDIEYNEFVVCHCDVNHNNWLLSDEDELFLIDWDGAVIADPALDLGMLLYWYIPRQEWSEWLGYYDIEMDESLLKRMRWYVIAQTILSIQWHTTKKQQAEAEYWHQYLQQLLASE
protein production: failed

MEYALLQHYWWFLVSLLGALLVFLLFVQGGQSFLFSLGKDELTQKMMVNSTGRKWEFTFTTLVTFGGALFASFPLFYSTSFGGAYWVWMLILFCFIIQAVSYEYQSKHGNVWGRKTYQILLFINGVLAPVLLGTAVSTFFTGSSFVVNKMAMFDLSGGNQIVSAWQPFNGWQLRGLEAVLNLWNVVLGLAVFFLARVSALLYFINNIDDESLYAAAKRRLWANTVAFLIFFLAYIAFLLTTEGFAVNPVSKEVYMEPYKYLYNFLDMPAVLAVFLLGVILVLGGIGLTLLRKGFKRGIWLHGTGTVLTVLALLLVAGWNDTSWYPSTYDLQSSLTIENASSSHFTLKVMSYVSLLIPFVLAYIFYAWRALDIRKITKKEMEQDDHVY
protein production: failed

MFCEKAMELIRELHRAPEGQLPAFNEDGLRQVLEEMKALYEQNQSDVNEAKSGGRSDLIPTIKFRHCSLLRNRRCTVAYLYDRLLRIRALRWEYGSILPNALRFHMAAEEMEWFNNYKRSLATYMRSLGGDEGLDITQDMKPPKSLYIEVRCLKDYGEFEVDDGTSVLLKKNSQHFLPRWKCEQLIRQGVLEHILS
protein production: failed

MFCLMSKEYLSWDKFIVTKIPSSVKLDPIIYEYIKKDHLILDIGCGVGKVSLQLAFQGFYVEGIDINETGILAAQDSARKLNLADKAHFRVGDAKDLPYMDDKFDIVIMHGLLTIIVDNSDRNKIIQEAYRVLNPEGHLYIVDFGQTWHSDIYRERYLKDFPITKEEGSFLVYNKDTGEIEFISHHYTEKELIFLLVNNGFKIDYFRDFLLFSGFSFSLYIVQNNKILIILIYFFYLWEKETLQ
protein production: failed

MFDIGWSELLVIAVVLIVVVGPKDLPPMIRAFGKTMAGLRKMAGDFRTQFDEALKEADMDDVRQTISDVRNLNPTNSLRDAMNPLRQLGNEIKSDLQKATSPSDGLSSTAAPATSEPVAPLVNVPEPDMKLPDSPPAVAAAPAPVAAASVAAEKPKRARAKSIATVEAEAVAAKPKRVSRSKAVATPETTVATNASEPASPKPTVKTIAKKATVKKIAAEKSVAVADAKPAKAARTKAAKPKKDEA
protein production: failed

MFDPKLLPATRKILDLPARLLVRVGVSADQVTITGFIIGLLAVPFLAFELYEFALAAILLNRLCDGLDGAVARRTQLTDAGGFLDIVLDFIFYSAVVFGFLLASPEQNAIASGLLLVTFMGTGSTFLAFACIAGKRGIENPEYPNKSLHYMGGLTEGFETILAFVAFCLWPQHFSVLAYIFAAACWLTAITRIVAGYRTLKQPGAKPESTNV
protein production: not failed

MFDRLKTMLIKEAIQILRDPKMRFIILVIPAIQITLFGYAVNTDVKHIATAVYDLDNSALSRDLVARLERSGYFDIVQRVQRGDELRDLLDRGKVRAAVQINRGFEENIRAGRTATLPIIVDGTDPSTARIVVSYSVTIAERFSDQILTDYSLRKSGRTTGGNGIELESRAWFNANLESRNYYVPGVIASMVLITTMMLSSMAVVREKEIGTMEQIIVTPIQRWEFIVGKLVPFAIVGYINVTIVTCIALFWFKIPLRGSILLLIGSTALFLMSTLGFGLLISTISRTQQQAMMSSFMFTFPAMLLSGFAFPIENMPTSIQYATYLNPLRYYLVIVRGIFLKGIGLGILWPQLAALALLGSVVLLFAVGRFKKSVG
protein production: failed

MFDVAVFGSLFLTLFVIMDPPGITPIFLALTAGRPAKVQKRMAFQAVCVAGGVITVFGLLGHQILDYLHVSVPALMIAGGLLLLLIALDLLTGKTDEPKQTKDVNVALVPLGMPLLAGPGAIVSVILAVQKAGSVATQVSVWAAILAIHVVLWVVMRYSLLIIRVIKDGGVVLVTRLAGMMLSAIAVQQIINGVTQVIRGS
protein production: failed

MFEAARFGDEISHTSALGGFLIGAALGIALVATVAIATFTCGFGVALLAGLAAGIGGSLLTAAGEAIGSMFSSPSGTITTASPNVFINSRKAARVEKSIGACDKHPGPVQIAEGSTNVFINSVAAARKGDKLTCGATISGGSDNVIIGGGTYRYLPVDDEVPEWLRTTVDVLMAIAGAAGGIAQLIKAGTQAGMKAVMPCALKFTAGFVAGEVASRYVVEPVARKAIGGLVGNPVDLTTGRKLIPDEIDFSLPGLMPIEWSRFYASDLTVDSVLGRGWVLPWEQSLRRQGAFIYLTDNQGREVPFVTLQPGQRIYNPHEQVYLVCTEGGHYILQTLDNLFFYFGEVPDTNTEVPLQRIENVLGHFLHFTRTPDGTLTDISATGGTRVHLHYDNPLGRLTDIKRVVNNEAVETLTQYRYDEHGQLSAVINRNGDTVRSFSYADGLMVTHSNALGLGCHYRWQTLGDKPRVVEHWTSDGEHYHFRYDLDSRTSWATDVLGRELEVQYNADHRVVASRDYGGERYAIELDEHGNMVGLTLPDGNRLQFKYDEFSRLLEETDPLGRKTQYEYHHLTTLVTQVSYPDGSTWRARFDDKGNLLAEFDALGQMTEYLNSDDGLPHTIIDATYKSKYLWWNTLAQVERYQDCSGKSTYYRYDERQHLVAVTDALNQTTTLARKPDGEVLRISHPDGTTESFTYNVYGQVLSHTDGKGQTTRLMRTARGLPSSRQDAKGQRVRYEYDKAMRLTALVNENNATYSFAYDASDRLSEEVRVDNLTRRFSYDVGGHLTRLDEIGYGENAERPERHTLFERDAIGRLIAKLNSDAQQRFTYDDGDRLLSIERQPTGIGKQLGITEEKLEYAYDLLGRLTKEISPDGTLGYEYDPLSNLTTLTLPDGRKVNHLYYGSGHLHQLNLDGQVISDMERDDLHREVYRTQGKLTSCFGYDAMGRKAWQFASTLPADKLSQVHNTGINTSLLVEHAYNPIHRRYQYDPAGELVRTLDKLRGEIKYEYEANGQLRSRDTGSLIGSEEFRYDPAANRLDFNARQFDKVKDNRIKQWRDQEYRYDPWGNLIEKRSGHSKLQHFSYDCENRLVRAETLVNGKLESQGEYRYDSLGRRIAKQAEINGEVEQKRFLWQGLRMLREETPGQSILYLYEPGSYAPLARVDQVEGEGQKVYYFHTDQIGTPLELTDSEGEIVWQATYRSWGTIETLSIKEVDQNLRFQGQYFDAETGLHYNTFRYYYSEVGRYVTQDPIGLDGGLNLYRYGQNPAGWIDPWGWECWSTARKNYWKAEAKAPTRAYSPTNLVRMAEGKAPKMTVEVISRKTDKISIREYALELHHNDIPQRVGGAGVHDSSNLLALTPWEHEAVDQFRHVGSDLIRVIKGVDVW
protein production: failed

MFENFSPSTMLAIKKYAYWLWLLLALSMPFNYWMAQDSAHPAFWAFSLVIAVFGIGPLLDMLFGRDPANPDEETQTPQLLGQGYYVLLTLATVPVLIGTLVWAAGVFVAFQEWGWLGRLGWILSMGTVMGAVGIVVAHELIHKDSALEQAAGGILLAAVCYAGFKVEHVRGHHVHVSTPEDASSARFGQSVYQFLPHAYKYNFLNAWRLEAVRLRKKGLPVFGWQNELIWWYLLSLALLVGFGWAFGWLGMVFFLGQAFVAVTLLEIINYVEHYGLHRRKGEDGRYERTNHTHSWNSNFVFTNLVLFHLQRHSDHHAFAKRPYQVLRHYDDSPQMPSGYAGMVVLALIPPLWRAVMDPKVRAYYAGEEFQLTAEQSERPAAS
protein production: failed

MFERFTDRARRVIVLAQEEARMLNHNYIGTEHILLGLIHEGEGVAAKALESMGISLDAVRQEVEEIIGQGSQPTTGHIPFTPRAKKVLELSLREGLQMGHKYIGTEFLLLGLIREGEGVAAQVLVKLGADLPRVRQQVIQLLS
protein production: not failed

MFEVTVSKRLLKSGIIVSAMTLISRVLGLVRDVVVANLMGAGASADVFFFANRIPNFLRRLFAEGAFSQAFVPVLTEYHASGDINKTRDLIARASGTLGVLVTIVTLIGVLGSGAVTALFGAGWFLDWLNGGPAAGKFELASLLLKITFPYLWFITFVALSGAILNTLGKFAVSSFTPVFLNVMMILCAWYLSPNLEQPEVGLAIGVFLGGLVQFLFQLPFLIKAGVLVRPKWGWKDPGVVKIRTLMIPALFGVSVSQINLLFDSFVASFLQTGSISWLYYSDRLLEFPLGLFGIAIATVILPALSRKHVDAHSDGFAHTMDWGIRMVTFLGIPAMLGLMVLAKPMLMVLFMRGEFTPSDVEQASYSLLAYSSGLLSFMLIKVLAPGYYSRQDTKTPVRYGIIAMVSNIVLNAIFAWFYGYVGLAVATSMSAFLNMALLYRGLHLQGVYHLTRKTVWFVARLAMAGAVMTGALLWQLDTMATWLSWGISQRALTLTGLIGLGVASYLAILLLLGVRLKDLKAATE
protein production: failed
